Laboratory results reported in patent US20210198377A1 (XDCEXPLORER SHANGHAI, published 2021).
Residue numbers refer to the chain shown, from its start. Where two headings read alike, the source gives them in different places.

T1: human TPBG (full length, on cells) (human, UniProt Q13641 32-420)
T1 sequence (looked up): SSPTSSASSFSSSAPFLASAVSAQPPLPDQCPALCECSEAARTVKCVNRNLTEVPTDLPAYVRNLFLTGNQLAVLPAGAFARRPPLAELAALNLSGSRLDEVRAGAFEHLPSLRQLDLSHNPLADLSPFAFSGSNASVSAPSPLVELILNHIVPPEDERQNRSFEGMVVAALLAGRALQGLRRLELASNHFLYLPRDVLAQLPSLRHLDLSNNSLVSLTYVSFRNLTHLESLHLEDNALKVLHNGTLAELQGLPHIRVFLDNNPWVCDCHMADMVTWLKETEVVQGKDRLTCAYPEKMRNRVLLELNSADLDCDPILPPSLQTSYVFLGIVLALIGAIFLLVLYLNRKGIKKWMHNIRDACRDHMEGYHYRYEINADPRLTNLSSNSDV

B1: 12B12C7C3-MMAF (antibody, DAR 8, V domains shown)
VH: DVQLVESGGGLVQPGGSRKLSCAASGFTFSNFGMHWVRQAPEKGLEWVAYISSGSTSFYYADTVKGRFTISRDNPKNTLFLQMTSLRSEDTAMYYCSRTNSLLRGFFDAWGAGTTVTVSS
VL: DIVLTQSPASLAVSLGQRATISCRASQSVSSSSYTYLHWYQQKPGQPPKLLIKSASNLESGVPARFSGTGSGTDFTLNIHPVEEEDTATYYCQHSWEIPLTFGAGTKLELK
modifications: MC-MMAF on cysteines after TCEP reduction, sites not stated
B2: 106D5G3D10-MMAF (antibody, DAR 8, V domains shown)
VH: EVQLVESGGGLVKPGGSLKLSCAASGFTFSDYGMHWVRQAPEKGLEWVGYISSGTYVVYYADTVKGRFTISRDNAKNTLFLQMTSLRSEDTAIYYCSTYGSNPFDYWGQGTTLTVSS
VL: QLVLTQSPAIMSASPGEKVTITCSATSSVSSMHWFQQKPVTSPKLWIYSTSNLASGVPTRFSGSGSGTSYSLTISRMEAEDAATYYCQQRSGYPPIFTFGSGTKLEIK
modifications: MC-MMAF on cysteines after TCEP reduction, sites not stated
B3: Chimeric Antibody 5G4-MMAF (antibody, human IgG1, DAR 3, V domains shown)
VH: EVQLVESGGDLVQPGGSLKLFCAASGFTFSTYGLSWVRQTPDKRLELVATITNNDGSAYYPDSVKGRFTISRDKAKNTLFLQMTSLKSEDTAMYYCARETGFGSSYLFDYWGQGTLVTVSA
VL: NIVMTQTPKFLLVSAGDRVTITCKASQSVSNDVAWYQQKPGQSPKLLIYFATNRYTGVPNRFTGSGYGTEFTFTISSVQAEDLAVYFCQQDYSSPTFGGGTKLEIK
modifications: MC-MMAF on cysteines after TCEP reduction, sites not stated
B4: Chimeric Antibody 39A11-MMAF (antibody, human IgG1, DAR 3, V domains shown)
VH: QVQLQQSGAELMKPGASMRLSCKATGYTFTGYWLEWIKRRPGHGLEWIGEILPGRGSTNYNEKFKGKATFTAETSSNTAYMQLTSLTTEDSAIYYCARGGRDFDNWGQGTTLTVSS
VL: DIQMTQSTSSLSASLGDRVTISCSASQGINNHLNWYQQKPDGTVKLLIYYTSSLHSGVPSRFSGSGSGTDYSLTISNLEPEDIAIYYCQQFSKLPYTFGGGTKVEMK
modifications: MC-MMAF on cysteines after TCEP reduction, sites not stated
B5: 5G4H10G5-MMAF (antibody, DAR 8, V domains shown)
VH: B3 VH
VL: B3 VL
modifications: MC-MMAF on cysteines after TCEP reduction, sites not stated
B6: Chimeric Antibody 36A10-MMAF (antibody, human IgG1, DAR 3, V domains shown)
VH: DVQLQESGPGMVKPSQSLSLTCTVTGYSITSGYDWHWIRHFPGNKLEWMGYISYSGNTNYNPSLKSRISITHNTSKNHFFLRLNSVTTEDTATYYCARGYGNWDAMDYWGQGTSVTVSS
VL: DIVMTQSQKFMSTSVGDRVSVTCKASQIVDTNVAWYQQKPGQSPKALISSASYRYSGVPDRFTGSGSGTDFTLTISNVQSEDLAEYFCQQYNSYPLTFGAGTKLELT
modifications: MC-MMAF on cysteines after TCEP reduction, sites not stated
B7: Chimeric Antibody 12B12-MMAE (antibody, human IgG1, DAR about 3, V domains shown)
VH: B1 VH
VL: B1 VL
modifications: MC-VC-PAB-MMAE on cysteines after TCEP reduction, sites not stated
B8: Chimeric Antibody 12B12-DM1 (antibody, human IgG1, DAR about 3, V domains shown)
VH: B1 VH
VL: B1 VL
modifications: SMCC-DM1, sites not stated
B9: 37H9C5G2-MMAF (antibody, DAR 8, V domains shown)
VH: QVQLQQSDAELVRPGASVKMSCKVSGYTFTDHTIHWMKQRPEQGLEWIGYIYPRDGSGTYNEKFKGKATLTADKSSSTAYMQLNSLTSEDSAVYFCARDGSSHYWYFDVWGTGTTVTVSS
VL: DIQMTQSPASLSASVGETVTITCRASEIIYNYLAWYQQKQGKSPQLLVYNAKTLAEGVPSRFSGSYSGTQFSLNINSLQSEDFGIYYCQHHHDTPLTFGAGTKLDLK
modifications: MC-MMAF on cysteines after TCEP reduction, sites not stated
B10: Chimeric Antibody 28D4-MMAE (antibody, human IgG1, DAR about 3, V domains shown)
VH: DVQLVESGGGLVRPGGSLKLSCAASGFTFSNYVMSWARQSPEKRLEWVAEISTGGSHTYYSDTVTGRFTISRDNAKKALYLEMSSLRSEDTAIYYCIMFYYGSSYSMDYWGQGTSVTVSS
VL: DIQMTQSTSSLSASLGDRITISCRASQDIRNYLNWYQQKPDGTVKLLIYHTSRLHSGVPSRFSGSGSGTDYSLTISNLEQEDIATYFCQQGDTLPLTFGAGTRLELK
modifications: MC-VC-PAB-MMAE on cysteines after TCEP reduction, sites not stated
B11: Chimeric Antibody 28D4-DM1 (antibody, human IgG1, DAR about 3, V domains shown)
VH: B10 VH
VL: B10 VL
modifications: SMCC-DM1, sites not stated
B12: Chimeric Antibody 12B12 (antibody, V domains shown)
VH: B1 VH
VL: B1 VL
B13: 39A11G5F2-MMAF (antibody, DAR 8, V domains shown)
VH: B4 VH
VL: B4 VL
modifications: MC-MMAF on cysteines after TCEP reduction, sites not stated
B14: Chimeric Antibody 28D4 (antibody, V domains shown)
VH: B10 VH
VL: B10 VL
B15: 52C9E9F6-MMAF (antibody, DAR 8, V domains shown)
VH: QVQLQQSGAELMKPGASVKLSCKATGYTFTGYWIEWIKQRPGHGLEWIGEILPGRGSTDYNEKFKGKATFTADTSSNTAYMQLSSLTTEDSAIYYCTRGRLDFTYWGQGTLVTVSA
VL: B4 VL with S7T, N30R, H32Y, I85T, F91Y, L94V, Y96W, V104L, M106I
modifications: MC-MMAF on cysteines after TCEP reduction, sites not stated
B16: 28D4E6A9-MMAF (antibody, DAR 8, V domains shown)
VH: B10 VH
VL: B10 VL
modifications: MC-MMAF on cysteines after TCEP reduction, sites not stated
B17: 36A10D8B12-MMAF (antibody, DAR 8, V domains shown)
VH: B6 VH
VL: B6 VL
modifications: MC-MMAF on cysteines after TCEP reduction, sites not stated
B18: 99E12C7H1-MMAF (antibody, DAR 8, V domains shown)
VH: QIQLVQSGPELKKPGETVKISCKPSGYTFTAYGLSWVKQAPGQGFQWMGWINTYSGVPTYTDDFKGRFAFSLETSAGTASLQITNLKNEDTATYFCARSSIPPFEYWGPGTTLTVSS
VL: SFVMTQSPKFLLVSVGDRVTITCKASQSVSNDVAWYQQKPGQPPRVLIYFASNRYTGVPDRFTGSGYGTDFTFTISTVQAEDLALYFCQQDYSSPWTFGGGTKLEIK
modifications: MC-MMAF on cysteines after TCEP reduction, sites not stated
B19: 103E2E9C2-MMAF (antibody, DAR 8, V domains shown)
VH: EVQLQQSGPVLVKPGASVKMSCEASGYSFIDYYMSWVKQSRGRSLEWIGVFNPYSGEIIYNQKFKGKATLTVDKSSSTAYMELSSLTSEDSGVYSCARLRISYYAIDYWGQGTSVAVSS
VL: ENVLTQSPAIMSASPGEKVTMTCRATSSVSSGHFHWYQQKSGASPKVWIYSTSNLASGVPARFSGSGSGTSFSLTISSVEAEDVATYFCQQYSGYPLTFGGGTKLEIK
modifications: MC-MMAF on cysteines after TCEP reduction, sites not stated

Columns and labels:
Assay in all cases: cell-based or functional assay
[1] = target: T1, human TPBG (full length, on cells)
[2] = target: T1, human TPBG (full length, on cells); remark: listed apart in the source
[3] = target: T1, human TPBG (full length, on cells); remark: listed apart in the source
[4] = target: T1, human TPBG (full length, on cells); remark: listed apart in the source

Binder	EC50 of cytotoxicity on TPBG-positive NCI-H1568 cells (CellTiter-Glo) [1]	IC50 of cytotoxicity on recombinant 293-hTPBG cells (CellTiter-Glo) [3]	further results
B1	0.042 nM		
B2	0.208 nM		
B3			IC50 of cytotoxicity on TPBG-positive NCI-H1299 cells (CellTiter-Glo) [2]: 87.3 nM
B4			IC50 of cytotoxicity on TPBG-positive NCI-H1299 cells (CellTiter-Glo) [2]: 4.3 nM
B5	0.626 nM		
B6			IC50 of cytotoxicity on TPBG-positive NCI-H1299 cells (CellTiter-Glo) [2]: 0.7 nM
B7		0.033 nM	IC50 of cytotoxicity on TPBG-positive NCI-H1299 cells (CellTiter-Glo) [4]: > 100 nM; IC50 of cytotoxicity on TPBG-positive NCI-H1568 cells (CellTiter-Glo) [4]: > 100 nM
B8		0.154 nM	IC50 of cytotoxicity on TPBG-positive NCI-H1299 cells (CellTiter-Glo) [4]: 10.4 nM; IC50 of cytotoxicity on TPBG-positive NCI-H1568 cells (CellTiter-Glo) [4]: 1.27 nM
B9	0.12 nM		
B10		0.08 nM	IC50 of cytotoxicity on TPBG-positive NCI-H1299 cells (CellTiter-Glo) [4]: 369 nM; IC50 of cytotoxicity on TPBG-positive NCI-H1568 cells (CellTiter-Glo) [4]: > 100 nM
B11		0.406 nM	IC50 of cytotoxicity on TPBG-positive NCI-H1299 cells (CellTiter-Glo) [4]: 6.08 nM; IC50 of cytotoxicity on TPBG-positive NCI-H1568 cells (CellTiter-Glo) [4]: 2.51 nM
B12		13.6 nM	
B13	0.285 nM		
B14		1.14 nM	
B15	1.49 nM		
B16	0.038 nM		
B17	0.066 nM		
B18	0.844 nM		
B19	0.135 nM		
